The values below are quoted from earlier work in paper PMC12748512.

The Kd is the constant that tells how readily two partners part at equilibrium.

Where two headings read alike, the source gives them in different places.

Data set [1] deals with IL-2Rβ-γc complex (Homo sapiens) (UniProt P14784).
The target is the same in data set [2]. This is another data set of the same source.

UniProt P14784, sequence (P14784 27-240, chain 1 of 2): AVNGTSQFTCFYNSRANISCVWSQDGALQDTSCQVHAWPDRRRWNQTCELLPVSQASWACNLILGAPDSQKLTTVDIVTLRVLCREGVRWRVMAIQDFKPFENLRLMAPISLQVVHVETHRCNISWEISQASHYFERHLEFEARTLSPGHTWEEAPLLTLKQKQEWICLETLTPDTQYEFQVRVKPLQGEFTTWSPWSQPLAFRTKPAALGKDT
UniProt P14784, sequence (P31785 23-262, chain 2 of 2, further chain): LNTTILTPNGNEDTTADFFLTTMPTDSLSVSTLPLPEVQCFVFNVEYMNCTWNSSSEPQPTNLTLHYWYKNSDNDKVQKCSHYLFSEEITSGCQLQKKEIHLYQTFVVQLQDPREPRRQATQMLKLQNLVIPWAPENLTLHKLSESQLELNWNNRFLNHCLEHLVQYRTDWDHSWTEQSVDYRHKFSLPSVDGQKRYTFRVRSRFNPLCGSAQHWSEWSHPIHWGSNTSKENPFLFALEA

Regarding IL-15 (from UniProt P40933), the Kd in data set [1] is 1 nM. With IL-2 (from UniProt P60568), in data set [2], the Kd was 1 nM.
